US20240254223A1 (published 2024)

Molecular target: His-tagged human CD47 (human, UniProt Q08722 19-139)
Sequence (Q08722 19-139): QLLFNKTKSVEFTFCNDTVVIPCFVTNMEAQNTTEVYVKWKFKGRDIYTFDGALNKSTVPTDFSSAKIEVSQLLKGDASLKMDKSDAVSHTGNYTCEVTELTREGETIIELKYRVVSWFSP

Kd: 56 nM
B1: pNOVI V2K K33 (antibody, V domains shown)
VH: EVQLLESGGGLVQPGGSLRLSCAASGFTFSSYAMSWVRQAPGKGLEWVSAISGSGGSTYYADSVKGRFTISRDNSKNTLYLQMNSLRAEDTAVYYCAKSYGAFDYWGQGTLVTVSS
VL: DIQMTQSPSSLSASVGDRVTITCRASQSISSYLNWYQQKPGKAPKLLIYAASSLQSGVPSRFSGSGSGTDFTLTISSLQPEDFATYYCQQFHKRSPQKFGQGTKVEIKR
